Laboratory results published in PMC12416549 (2024).
Substitutions are numbered along the chain they refer to. In names and notes the source's numbering stands.

T1: TNFR1 (Homo sapiens, UniProt P19438)
T1 chain: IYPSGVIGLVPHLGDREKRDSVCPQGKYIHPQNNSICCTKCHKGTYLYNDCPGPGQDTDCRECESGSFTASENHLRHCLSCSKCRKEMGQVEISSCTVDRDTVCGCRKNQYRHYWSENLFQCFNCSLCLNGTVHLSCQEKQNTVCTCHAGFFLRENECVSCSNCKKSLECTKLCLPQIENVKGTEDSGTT

B1: F31T (designed binder)
chain: MTLQELLREEALRRAEAEAFRYALELLAEKTPEQKEYLLDLAEEIESQIRSLSGVDVEDVRKFLDKEWAWVKELLAEHPAELAEVEAARAARLAELRAEVEAKVAA
B2: T2E (designed binder)
chain: B1 chain with T2E, T31F
B3: V100N (designed binder)
chain: B1 chain with T31F, V100N
B4: A94F (designed binder)
chain: B1 chain with T31F, A94F
B5: T2R (designed binder)
chain: B1 chain with T2R, T31F
B6: A80C (designed binder)
chain: B1 chain with T31F, A80C
B7: E77F (designed binder)
chain: B1 chain with T31F, E77F
B8: E101T (designed binder)
chain: B1 chain with T31F, E101T
B9: S53V (designed binder)
chain: B1 chain with T31F, S53V
B10: V55W (designed binder)
chain: B1 chain with T31F, V55W
B11: A28M (designed binder)
chain: B1 chain with A28M, T31F
B12: R14E (designed binder)
chain: B1 chain with R14E, T31F
B13: F63S (designed binder)
chain: B1 chain with T31F, F63S
B14: E18I (designed binder)
chain: B1 chain with E18I, T31F
B15: E10D (designed binder)
chain: B1 chain with E10D, T31F
B16: A17D (designed binder)
chain: B1 chain with A17D, T31F
B17: M1V (designed binder)
chain: B1 chain with M1V, T31F
B18: A90Y (designed binder)
chain: B1 chain with T31F, A90Y
B19: A83T (designed binder)
chain: B1 chain with T31F, A83T
B20: A76L (designed binder)
chain: B1 chain with T31F, A76L
B21: V104E (designed binder)
chain: B1 chain with T31F, V104E
B22: E77T (designed binder)
chain: B1 chain with T31F, E77T
B23: A11T (designed binder)
chain: B1 chain with A11T, T31F
B24: K72Y (designed binder)
chain: B1 chain with T31F, K72Y
B25: W68R (designed binder)
chain: B1 chain with T31F, W68R
B26: F31C (designed binder)
chain: B1 chain with T31C
B27: A98G (designed binder)
chain: B1 chain with T31F, A98G
B28: E36S (designed binder)
chain: B1 chain with T31F, E36S
B29: A88L (designed binder)
chain: B1 chain with T31F, A88L
B30: A19N (designed binder)
chain: B1 chain with A19N, T31F
B31: A102R (designed binder)
chain: B1 chain with T31F, A102R
B32: W70I (designed binder)
chain: B1 chain with T31F, W70I
B33: Q4S (designed binder)
chain: B1 chain with Q4S, T31F
B34: E81N (designed binder)
chain: B1 chain with T31F, E81N
B35: A87D (designed binder)
chain: B1 chain with T31F, A87D
B36: L64C (designed binder)
chain: B1 chain with T31F, L64C
B37: L96T (designed binder)
chain: B1 chain with T31F, L96T
B38: A15P (designed binder)
chain: B1 chain with A15P, T31F
B39: D65N (designed binder)
chain: B1 chain with T31F, D65N
B40: V60W (designed binder)
chain: B1 chain with T31F, V60W
B41: D40L (designed binder)
chain: B1 chain with T31F, D40L
B42: G54F (designed binder)
chain: B1 chain with T31F, G54F
B43: L74V (designed binder)
chain: B1 chain with T31F, L74V
B44: V100F (designed binder)
chain: B1 chain with T31F, V100F
B45: Y22W (designed binder)
chain: B1 chain with Y22W, T31F
B46: E84H (designed binder)
chain: B1 chain with T31F, E84H
B47: D65K (designed binder)
chain: B1 chain with T31F, D65K
B48: A76G (designed binder)
chain: B1 chain with T31F, A76G
B49: A69G (designed binder)
chain: B1 chain with T31F, A69G
B50: E33S (designed binder)
chain: B1 chain with T31F, E33S
B51: R92L (designed binder)
chain: B1 chain with T31F, R92L
B52: R14W (designed binder)
chain: B1 chain with R14W, T31F
B53: W68G (designed binder)
chain: B1 chain with T31F, W68G
B54: F31W (designed binder)
chain: B1 chain with T31W
B55: A91E (designed binder)
chain: B1 chain with T31F, A91E
B56: A42D (designed binder)
chain: B1 chain with T31F, A42D
B57: A80D (designed binder)
chain: B1 chain with T31F, A80D
B58: A80G (designed binder)
chain: B1 chain with T31F, A80G
B59: E46W (designed binder)
chain: B1 chain with T31F, E46W

Biological target: T1, TNFR1
Assay: yeast display SC50

| apparent Kd (screen) [pM] | Binder |
| --- | --- |
| 593 | B1 |
| 2730 | B2 |
| 593 | B3 |
| 593 | B4 |
| 956 | B5 |
| 490 | B6 |
| 446 | B7 |
| 1050 | B8 |
| 2480 | B9 |
| 1160 | B10 |
| 9410 | B11 |
| 653 | B12 |
| 956 | B13 |
| 539 | B14 |
| 539 | B15 |
| 790 | B16 |
| 539 | B17 |
| 718 | B18 |
| 593 | B19 |
| 490 | B20 |

| apparent Kd (screen) [pM] | Binder |
| --- | --- |
| 653 | B21 |
| 490 | B22 |
| 593 | B23 |
| 593 | B24 |
| 2480 | B25 |
| 653 | B26 |
| 718 | B27 |
| 405 | B28 |
| 490 | B29 |
| 446 | B30 |
| 446 | B31 |
| 13800 | B32 |
| 1160 | B33 |
| 539 | B34 |
| 490 | B35 |
| 2480 | B36 |
| 490 | B37 |
| 2730 | B38 |
| 490 | B39 |
| 790 | B40 |

| apparent Kd (screen) [pM] | Binder |
| --- | --- |
| 1400 | B41 |
| 12500 | B42 |
| 2480 | B43 |
| 490 | B44 |
| 490 | B45 |
| 869 | B46 |
| 539 | B47 |
| 490 | B48 |
| 653 | B49 |
| 490 | B50 |
| 446 | B51 |
| 539 | B52 |
| 718 | B53 |
| 1160 | B54 |
| 593 | B55 |
| 1860 | B56 |
| 490 | B57 |
| 790 | B58 |
| 368 | B59 |
